These results are taken from PMC5182059.

Substitutions are numbered along the chain they refer to. In names and notes the source's numbering stands.

The labels stand for the following.
B1: (1-452)Ric-8A truncation mutant (domain or fragment)
chain: MEPRAVADALETGEEDAVTEALRSFNREHSQSFTFDDAQQEDRKRLAKLLVSVLEQGLSPKHRVTWLQTIRILSRDRSCLDSFASRQSLHALACYADIAISEEPIPQPPDMDVLLESLKCLCNLVLSSPTAQMLAAEARLVVRLAERVGLYRKRSYPHEVQFFDLRLLFLLTALRTDVRQQLFQELHGVRLLTDALELTLGVAPKENPLVILPAQETERAMEILKVLFNITYDSVKREVDEEDAALYRYLGTLLRHCVMADAAGDRTEEFHGHTVNLLGNLPLKCLDVLLALELHEGSLEFMGVNMDVINALLAFLEKRLHQTHRLKECVAPVLSVLTECARMHRPARKFLKAQVLPPLRDVRTRPEVGDLLRNKLVRLMTHLDTDVKRVAAEFLFVLCSESVPRFIKYTGYGNAAGLLAARGLMAGGRPEGQYSEDEDTDTEEYREAKASI
B2: Ric-8A (1-491) G457A (domain or fragment)
chain: MEPRAVADALETGEEDAVTEALRSFNREHSQSFTFDDAQQEDRKRLAKLLVSVLEQGLSPKHRVTWLQTIRILSRDRSCLDSFASRQSLHALACYADIAISEEPIPQPPDMDVLLESLKCLCNLVLSSPTAQMLAAEARLVVRLAERVGLYRKRSYPHEVQFFDLRLLFLLTALRTDVRQQLFQELHGVRLLTDALELTLGVAPKENPLVILPAQETERAMEILKVLFNITYDSVKREVDEEDAALYRYLGTLLRHCVMADAAGDRTEEFHGHTVNLLGNLPLKCLDVLLALELHEGSLEFMGVNMDVINALLAFLEKRLHQTHRLKECVAPVLSVLTECARMHRPARKFLKAQVLPPLRDVRTRPEVGDLLRNKLVRLMTHLDTDVKRVAAEFLFVLCSESVPRFIKYTGYGNAAGLLAARGLMAGGRPEGQYSEDEDTDTEEYREAKASINPVTARVEEKPPNPMEGMTEEQKEHEAMKLVNMFDKLSR
B3: Ric-8A (1-491) P466A (domain or fragment)
chain: B2 chain with A457G, P466A
B4: Ric-8A (1-491) V459A (domain or fragment)
chain: B2 chain with A457G, V459A
B5: Ric-8A (1-491), rat (Resistance to Inhibitors of Cholinesterase 8A) (domain or fragment)
chain: B2 chain with A457G
B6: Ric-8A (1-491) E468A (domain or fragment)
chain: B2 chain with A457G, E468A
B7: Ric-8A (1-491) R458A (domain or fragment)
chain: B2 chain with A457G, R458A
B8: Ric-8A (1-491) P464A (domain or fragment)
chain: B2 chain with A457G, P464A
B9: Ric-8A (1-491) P454A (domain or fragment)
chain: B2 chain with P454A, A457G
B10: Ric-8A (1-491) E461A (domain or fragment)
chain: B2 chain with A457G, E461A
B11: Ric-8A (1-491) G469A (domain or fragment)
chain: B2 chain with A457G, G469A
B12: Ric-8A (1-491) K462A (domain or fragment)
chain: B2 chain with A457G, K462A
B13: Ric-8A (1-491) T456A (domain or fragment)
chain: B2 chain with T456A, A457G
B14: Ric-8A (1-491) N465A (domain or fragment)
chain: B2 chain with A457G, N465A
B15: Ric-8A (1-491) E460A (domain or fragment)
chain: B2 chain with A457G, E460A
B16: Ric-8A (1-491) P463A (domain or fragment)
chain: B2 chain with A457G, P463A
B17: Ric-8A (1-491) V455A (domain or fragment)
chain: B2 chain with V455A, A457G
B18: Ric-8A (1-491) M467A (domain or fragment)
chain: B2 chain with A457G, M467A

This experiment has as its target myristoylated Gαi1 harboring a hexahistidine tag in the helical domain (rat) (UniProt P10824).
Sequence of UniProt P10824 (P10824 whole entry, the tested form may be a part): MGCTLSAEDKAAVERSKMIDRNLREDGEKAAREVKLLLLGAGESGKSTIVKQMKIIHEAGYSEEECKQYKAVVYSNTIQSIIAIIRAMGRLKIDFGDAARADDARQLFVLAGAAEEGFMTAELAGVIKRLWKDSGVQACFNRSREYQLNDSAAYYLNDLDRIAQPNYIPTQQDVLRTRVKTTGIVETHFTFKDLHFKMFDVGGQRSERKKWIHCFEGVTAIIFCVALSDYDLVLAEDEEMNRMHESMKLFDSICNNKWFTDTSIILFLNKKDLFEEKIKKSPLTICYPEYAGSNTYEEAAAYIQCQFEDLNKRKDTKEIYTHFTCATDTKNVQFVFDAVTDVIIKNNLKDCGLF
B1 yielded a v1: initial velocity of GDP to GTPγS exchange at Gαi1•GDP (2 μM) on adding GTPγS (10 μM) and Ric-8A (2 μM), tryptophan fluorescence, 25°C of 0.86 µM/min; a v2: initial rate of GTPγS binding to pre-formed Gαi1:Ric-8A (2 μM each, incubated 5 min before 10 μM GTPγS), with release of Ric-8A, tryptophan fluorescence, 25°C of 0.39 µM/min.
For B2, the v1: initial velocity of GDP to GTPγS exchange at Gαi1•GDP (2 μM) on adding GTPγS (10 μM) and Ric-8A (2 μM), tryptophan fluorescence, 25°C amounted to 3.47 µM/min; the v2: initial rate of GTPγS binding to pre-formed Gαi1:Ric-8A (2 μM each, incubated 5 min before 10 μM GTPγS), with release of Ric-8A, tryptophan fluorescence, 25°C amounted to 6.02 µM/min.
The corresponding values for B3 are 0.47 µM/min and 0.34 µM/min.
For the molecule B4, the v1: initial velocity of GDP to GTPγS exchange at Gαi1•GDP (2 μM) on adding GTPγS (10 μM) and Ric-8A (2 μM), tryptophan fluorescence, 25°C is 5.65 µM/min; the v2: initial rate of GTPγS binding to pre-formed Gαi1:Ric-8A (2 μM each, incubated 5 min before 10 μM GTPγS), with release of Ric-8A, tryptophan fluorescence, 25°C was 6.85 µM/min.
In the case of B5, the v1: initial velocity of GDP to GTPγS exchange at Gαi1•GDP (2 μM) on adding GTPγS (10 μM) and Ric-8A (2 μM), tryptophan fluorescence, 25°C is 3.84 µM/min; the v2: initial rate of GTPγS binding to pre-formed Gαi1:Ric-8A (2 μM each, incubated 5 min before 10 μM GTPγS), with release of Ric-8A, tryptophan fluorescence, 25°C is 4.66 µM/min.
The like results for B6 were, in that order, 3.82 µM/min and 6.23 µM/min.
The like results for B7 were, in that order, 0.63 µM/min and 0.37 µM/min.
The like results for B8 were, in that order, 2.83 µM/min and 4.73 µM/min.
B9 registered a v1: initial velocity of GDP to GTPγS exchange at Gαi1•GDP (2 μM) on adding GTPγS (10 μM) and Ric-8A (2 μM), tryptophan fluorescence, 25°C of 2.88 µM/min; a v2: initial rate of GTPγS binding to pre-formed Gαi1:Ric-8A (2 μM each, incubated 5 min before 10 μM GTPγS), with release of Ric-8A, tryptophan fluorescence, 25°C of 5.39 µM/min.
The corresponding values for B10 are 7.45 µM/min and 5.06 µM/min.
Molecule B11 displayed a v1: initial velocity of GDP to GTPγS exchange at Gαi1•GDP (2 μM) on adding GTPγS (10 μM) and Ric-8A (2 μM), tryptophan fluorescence, 25°C of 0.63 µM/min; a v2: initial rate of GTPγS binding to pre-formed Gαi1:Ric-8A (2 μM each, incubated 5 min before 10 μM GTPγS), with release of Ric-8A, tryptophan fluorescence, 25°C of 0.26 µM/min.
The corresponding values for B12 are 4.46 µM/min and 5.15 µM/min.
In turn, B13 yielded a v1: initial velocity of GDP to GTPγS exchange at Gαi1•GDP (2 μM) on adding GTPγS (10 μM) and Ric-8A (2 μM), tryptophan fluorescence, 25°C of 0.59 µM/min; a v2: initial rate of GTPγS binding to pre-formed Gαi1:Ric-8A (2 μM each, incubated 5 min before 10 μM GTPγS), with release of Ric-8A, tryptophan fluorescence, 25°C of 0.24 µM/min.
The like results for B14 were, in that order, 2.25 µM/min and 4.56 µM/min.
Molecule B15 registered a v1: initial velocity of GDP to GTPγS exchange at Gαi1•GDP (2 μM) on adding GTPγS (10 μM) and Ric-8A (2 μM), tryptophan fluorescence, 25°C of 6.54 µM/min; a v2: initial rate of GTPγS binding to pre-formed Gαi1:Ric-8A (2 μM each, incubated 5 min before 10 μM GTPγS), with release of Ric-8A, tryptophan fluorescence, 25°C of 5.36 µM/min.
The corresponding values for B16 are 2.9 µM/min and 4.78 µM/min.
The like results for B17 were, in that order, 0.82 µM/min and 0.25 µM/min.
The molecule B18 had a v1: initial velocity of GDP to GTPγS exchange at Gαi1•GDP (2 μM) on adding GTPγS (10 μM) and Ric-8A (2 μM), tryptophan fluorescence, 25°C of 2.17 µM/min; a v2: initial rate of GTPγS binding to pre-formed Gαi1:Ric-8A (2 μM each, incubated 5 min before 10 μM GTPγS), with release of Ric-8A, tryptophan fluorescence, 25°C of 4.57 µM/min.
